The data set deals with the molecule itself. Description: cryo-EM structure.

B1: DARP14 subunit A (cage subunit A fused to the DARPin by a continuous alpha helix) (other)
chain: MRITTKVGDKGSTRLFGGEEVWKDSPIIEANGTLDELTSFIGEAKHYVDEEMKGILEEIQNDIYKIMGEIGSKGKIEGISEERIAWLLKLILRYMEMVNLKSFVLPGGTLESAKLDVCRTIARRALRKVLTVTREFGIGAEAAAYLLALSDLLFLLARVIEIELGKKLLEAARAGQDDEVRILMANGADVNAHDDQGSTPLHLAAWIGHPEIVEVLLKHGADVNARDTDGWTPLHLAADNGHLEIVEVLLKYGADVNAQDAYGLTPLHLAADRGHLEIVEVLLKHGADVNAQDKFGKTAFDISIDNGNEDLAEILQKLN
For B1, the binding result is on record as “binds”.

B2: DARP14 subunit B (unfused cage subunit B) (other)
chain: MPHLVIEATANLRLETSPGELLEQANKALFASGQFGEADIKSRFVTLEAYRQGTAAVERAYLHACLSILDGRDIATRTLLGASLCAVLAEAVAGGGEEGVQVSVEVREMERLSYAKRVVARQR
For B2, the binding result is given as “binds”.

The record behind these values is article doi:10.1101/212233 (bioRxiv, 2017).
